Assay [1] deals with free-tag TSWV N protein (tomato spotted wilt virus (Yunnan isolate)). Kind of assay: native gel or EMSA; 4-16% discontinuous blue native PAGE at 4 °C, cathode buffer 100 mM histidine pH 8.0 with 0.002% Coomassie G-250; purified N protein without PEI treatment (carries E. coli RNA); self-association. A general note: In EMSA bound probe runs differently from free probe, usually more slowly.

Assay [2] has as its target His6-tagged nucleocapsid (N) protein of tomato spotted wilt virus (TSWV) (tomato spotted wilt virus (Yunnan isolate)). Kind of assay: cross-linking; 30 ug purified N protein with increasing glutaraldehyde, 37 °C for 5 min, quenched with Tris-HCl pH 7.5; 5-20% SDS-PAGE, Coomassie staining; self-association.

Values joined by “and” are separate entries in the source; they are usually repeats but may differ in a detail not shown here. Equal values may be shown once.

What is called stoichiometry N is a count of units in the complex or per binding partner. “free-tag TSWV N protein (natural protein)”: the stoichiometry N in assay [1] was 2 and 3 and 4.

In the case of “His6-tagged nucleocapsid (N) protein of tomato spotted wilt virus (TSWV) (natural protein)”, the stoichiometry N in assay [2] was > 3 and 2 and 3.

For the origin of these results see article PMC4326804.
